Here are results for 1 molecule from PMC8340551 (The Journal of Cell Biology, 2021).

For this test, the target named is T1, FHL2-Flag (UniProt Q14192 1-279).
T1 sequence (looked up): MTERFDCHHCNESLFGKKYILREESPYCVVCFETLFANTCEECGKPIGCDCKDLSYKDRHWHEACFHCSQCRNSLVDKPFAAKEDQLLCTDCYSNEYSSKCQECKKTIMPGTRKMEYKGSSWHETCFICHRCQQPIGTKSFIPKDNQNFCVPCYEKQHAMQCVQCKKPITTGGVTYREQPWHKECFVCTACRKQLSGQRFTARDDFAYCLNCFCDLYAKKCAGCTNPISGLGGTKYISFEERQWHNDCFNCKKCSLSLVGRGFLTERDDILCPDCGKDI
Briefly: co-IP.

B1: Myc-TRAK1 (Myc-TRAK1^WT) (natural protein, UniProt Q9UPV9 1-953, looked up)
chain: MALVFQFGQPVRAQPLPGLCHGKLIRTNACDVCNSTDLPEVEIISLLEEQLPHYKLRADTIYGYDHDDWLHTPLISPDANIDLTTEQIEETLKYFLLCAERVGQMTKTYNDIDAVTRLLEEKERDLELAARIGQSLLKKNKTLTERNELLEEQVEHIREEVSQLRHELSMKDELLQFYTSAAEESEPESVCSTPLKRNESSSSVQNYFHLDSLQKKLKDLEEENVVLRSEASQLKTETITYEEKEQQLVNDCVKELRDANVQIASISEELAKKTEDAARQQEEITHLLSQIVDLQKKAKACAVENEELVQHLGAAKDAQRQLTAELRELEDKYAECMEMLHEAQEELKNLRNKTMPNTTSRRYHSLGLFPMDSLAAEIEGTMRKELQLEEAESPDITHQKRVFETVRNINQVVKQRSLTPSPMNIPGSNQSSAMNSLLSSCVSTPRSSFYGSDIGNVVLDNKTNSIILETEAADLGNDERSKKPGTPGTPGSHDLETALRRLSLRRENYLSERRFFEEEQERKLQELAEKGELRSGSLTPTESIMSLGTHSRFSEFTGFSGMSFSSRSYLPEKLQIVKPLEGSATLHHWQQLAQPHLGGILDPRPGVVTKGFRTLDVDLDEVYCLNDFEEDDTGDHISLPRLATSTPVQHPETSAHHPGKCMSQTNSTFTFTTCRILHPSDELTRVTPSLNSAPTPACGSTSHLKSTPVATPCTPRRLSLAESFTNTRESTTTMSTSLGLVWLLKERGISAAVYDPQSWDRAGRGSLLHSYTPKMAVIPSTPPNSPMQTPTSSPPSFEFKCTSPPYDNFLASKPASSILREVREKNVRSSESQTDVSVSNLNLVDKVRRFGVAKVVNSGRAHVPTLTEEQGPLLCGPPGPAPALVPRGLVPEGLPLRCPTVTSAIGGLQLNSGIRRNRSFPTMVGSSMQMKAPVTLTSGILMGAKLSKQTSLR
modifications: O-GlcNAc on serine and threonine residues (sites not given), more with co-expressed OGT, less with co-expressed OGA
With B1, the “fold more co-precipitated with OGT overexpression than with OGA overexpression” value was 5 fold.
